Reference: the domain aggregation screens of Martell et al. (2025)

Assay: soluble fraction after stress (log2 fold change); higher = more stays soluble; pooled small domains, quantitative proteomics
Conditions: stress: pH 4
Procedure, shortened: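 With high-throughput quantitative proteomics, pooled custom libraries of small protein domains were measured after pH 4 stress. Each domain's soluble amount after the stress gives a fold change taken as aggregation propensity. Higher log2 values mean more of the domain stayed soluble.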

Sequence	soluble fraction (log2)
HMRVPQWLVDKIAAAGIDTHRSGPALKALAAKAGTPEQLDQAIARAKALRRRTGSTQSLNVGLLGSILEGT	-0.0808
HMRVQELARDLGVEADTLIALLRQMGIPVTGARSAINDAQQAKVLAKIERERRAGHSDPAKAIQAVLEEAS	0.0597
HMRVSNADALIGRRGKANSDIRRGDYGWVAIDGDVWKSKLADDITEDIPMGAIVEVLSRDSIILTVKP	-1.08
HMRWAAIMGREVAAHSTPESLVEGKLHIRTDTTAWATQLRLMSADIVRRLNEVLGEGTVLEVDVRG	-1.12
HMRWSDQKEIVTLSLDHVLVEKGRKTKEYSWREFRTFTAFEIKKSSKDQINLGFKSKGNTVIIGNF	-0.438
HMSAAELFEERQRQYLRGRKSTKNIADNHGTIILRAGETITDQAIDKAKVAGKLVELVMNNE	0.144
HMSADDSDDRKGIDAWLTQLLANGSVKATEVYSAADAAGYSKDQAKRAKRRLAIEAVREAMDGPWFWRLD	-0.742
HMSAEDQRRASQEAAYRFMQVMAGNEAGFEDAARALFAGDNHRFEVLIQSWPDDVRDHVSLLSVDAFA	-1.78
HMSAEVMLRRLIDENDPSSENARYILAVMLERKKILAPVDVKNEKKSKMLFYEHQKTGEAFIVRDP	-0.17
HMSAEVSEIEIQRIISYYRNQNGVPDKYNEIFDRIAAQYTDEQLKVISNFLPSDVKQYLSFNNEKYKSLG	-0.955
HMSAGKKSFTNSEFRRFLDALGEGLIVKHKKLGEGVVVEIRGDKAVIQFGDEQRLYELKTLYEYDLLR	-0.874
HMSALAQDGDLVQLQGAGYKSHILRLKAGEVLQTHRGVIQHDAVIGQPWGARLQSHTGSPFYLFQPGLADL	-0.187
HMSALTELPVKTVNGKKYHYYVVKQHETVYALSKRFGITPEQLIKYNPSAEDGLQIDQELLFPATEI	-0.282
HMSANVSMEEALRRTSQAHSLAGKWMRRVLQMAQGRDLIEQMQREAQEAHLPELIGMSVQLEFIRRG	-0.363
HMSAPEGWMNRGDLRDNFRIQYPVTDRIIASYRESHPEWFGTYLSKTSKSLEYFHPDLVAKVREAAN	-0.145
HMSAPQKWDGSLQDFIRFKQEAKTLMDNIPNKRLALNAILETISDGKMRKRLAKYDGPESALKSLELEFGN	0.0286
HMSAQDLIVRRDSARIEARVTEISPTEIRYKRASNPDGPTYVLPLGDVRSIRYANGEEEVFAPA	-0.0969
HMSAQQTFLRDAMRRLNMTRDSFAERIGVRRRALDTWLLPEDSSEYRTMPSIVEKFVGEILGREA	0.112
HMSARKVTVALHTRDHADRLRRLLKHEGVSADLVAARLSHKLTDHPIEVRVNEDDIPAVLRIIENIEIF	-0.707
HMSASLPAAVEDPDLPYRVGAKLRHARWGEGLLVGIQREGSDVIATVHFASVGRKRLSLQYAHLEE	-0.785
HMSATIMVLRASEDIPVGTEIKDNHLTTVEVGSYGLPEGAINDKDTVLGKVAQTNIIKGDYFFPQKLGG	-1.18
HMSDAQIKASINDLWFKYNLETFAKLNLNVNQGRVLVTGIVQNPEHRLEAIRLVWTVDGVQQVINEIQVAE	-1.23
HMSDDIPVHYRLDVNDAARALKLLTDNGFSAETAESGLNVYMTRLQSAEAARLLVENNIAVYGLTAV	-0.196

Sequence	soluble fraction (log2)
HMSDDLIILGYSMLNNALKAFHIDPDSIKKKHWDKLAQDYHLKNKNQILTDIALGKRVNIMVAHQLTTIMD	-1.32
HMSDDSYLVALAEAYKNATSWDIRRQVLSIMTGVSSYKEISRYIPGLTQYRLSISNLHRLQYGRAAPVP	-0.217
HMSDEAGKVLQLLRENGGYLPYNDRSDPEDIYAFFSMSKKTFKMTAGNLYKQKKIIFTNTGIKLTE	0.317
HMSDEVNTDKAFRAIDSTLNRNVKGIAPRDHTLLRNTMITYFKSNDYIDYDTMIQSTLENYKPTELEQDKM	0.135
HMSDGHLIKVLEVLDGGEAFLGRTANGGTARFSLGQLADIRRGSVVFVSEDRWEVVPDSAWPEI	-1.29
HMSDGIPDLRNLNFLSPQEGDYLNESDRVFGVTINGDGQAYPLRIVNAHEMVNDTLGGEPISLM	-0.34
HMSDHKNANFTKVVKVAQELLQDEDDKAGITPTLIEEKISAVLAMNRRWAEGLDRAAVADELIRRFSIW	-0.951
HMSDIATLVPGPTDAELAASALRGLDAALDADTPVRLSLGEPGGEVEVPRSVLAALARVLDSFAHGEGVTL	-0.443
HMSDIISEIESQVMFKLATYEITNATEKMIEALINSEINDRRTLGFPIPNEQGRIFLVRSIQNKLAV	-1.54
HMSDIIVQGNRRLDTDLIITDSQIREIGTDEKSLSLAVKNLYKTGYFENVQIFKDNSVVFINVKENQ	-0.358
HMSDIQKGTQINLVNEPLYVSSKTSIVSTYKTGTYYTWGFEANNRIAITNKLENIGVKGQVTGWINKP	0.0239
HMSDKFNALWIILNKLDKKEKVTARSLMEDLEVSERSVYRYITTLQVAGFPVDYDRAVNSYVFSDGYTLK	-2.16
HMSDKLTLPVQINGVFRYTIEINPSMQKDEIIDLVKNEERTAKYKQDKEIKNVIVVPGKIVNIII	0.22
HMSDLPLLEHARQNLSDDEFRILELTTIYGYRRVEVAKMLGEPISTINWKYNKLIKKVKTFYGEVYN	-0.567
HMSDLVATKEQVVEAYKYGLGLGLDNSTLKMLLFDIRGEDVADQDKISDGMTVSEIEIWKEGMRTIAEEYL	-1.07
HMSDMIGQNIRRLRTEKQMTQKALADKLFVTAQAVSRWENGEVEPSLSTVTEIARIFNVSADEILGI	-0.284
HMSDPDPAEQALLRQFMTRYAAYRRRGQHPAGAFRTASLEVFGQEPSGDLRDVIVDLESGLV	-0.59
HMSDPELNDNEKKIYDIIFNKKSMDLTELKNLSELSNKQWDKGIKSLSKQDFVKVIKTEEALIVELV	-0.126
HMSDPSAQADALFNEGKTAEAFNVLLRLIEDSPEDQREDYRVRLLDLFRIAGNTPEVKAARRRLSALLM	-0.101
HMSDRFVRIVMNDGTVKLGQMISEDADFIRLKTNNLGELNIPKYLVLDMMDLTRSEYVRLSISNAG	-0.426
HMSDSAFAEMRRELEALRNSNAEYERALSNFFPEAEDKALAAEAFYQNREYDELVAEREEANVIDGLKR	-0.815
HMSDSISLTLNGDLRRFRAHATIADLVRDIGLDPVKVAVERNLEIVSRSTLEDVVLADGDRLEIVHFV	-2.67
HMSDSLVLTGVAYVDGKPVVTLFDKVKKESLVVTDQPNLKGWTLVEATQSSDIKRATAKVNIGGEPVSIRY	-0.162

Sequence	soluble fraction (log2)
HMSDTFENILQRLIKATGRKNASEMANALGLSPQSVYSAKTKGKIPPAWIFAAAERFNASADWIYFGY	-0.759
HMSDTSAIEKIIDEVLSDESSQKAINDIKNGNEKVYGFLVGQVMKKSQGKANPGLVQKMLREKIAK	0.22
HMSDYKSALQEAVQTNKQSIEYVLIKESGPAHNKTFTFEVRIDNISYGVGTAKSKKEAEQIAAKDALDKLV	-0.103
HMSDYVLLYSGLNTSDTTFLAYSFQEKGIRYKMPNPDEIEVRVQDVDQARRIAAGAQLGGQVS	-0.297
HMSEEGTIPDVSGQDEASAQKALENAGFTNIKSEAVYSEEEQGTVIDTNPTAGTKVSKDTEITMQVSKGSE	0.108
HMSEEKLVFSIPDDIETMRIDKAIALETHLSRAQIAELFKENKILLNSKNSKRSEKVKPGDKISLEFIPKI	-0.0612
HMSEEVKSQPISILDLSTRASNGLKNEGIETIGELVKYSEDELLGLDKFGQNSLKEIKKKLEEIGLTLKEH	-0.0527
HMSEFLTIVRAVYSGLSRRKVAAMHKVSRNTVSLYLRQARDQGWLTLEDLEKLDDLTVSQGVS	-0.918
HMSEFVIPLAKYNKALYTQVSLGMRFRMLFETEDSGVRRYMGTITGIGDLDPIRWKNSHWRNLQV	0.22
HMSEHLTLVVSDEDAGHRVDQFLVSRLAHMTRSQIQKLIKDGQVTIDTKLVRASTTVHTDNIVTIEFPPAV	0.314
HMSEKLTLEAANEAAGMRIDKWLAMQLPELSRSRIEALISGGGVVVNGKNPSKSLKLKGGEQIELEIPE	0.108
HMSELLIVGSEQDNTRLDRFLADQYEEYTRSFLQKLIDQGNVSINGISVKKSGIKLKENDEIAVTLPEPQ	-0.588
HMSELPLTQKVAIVMVALGEEASGEVMKHLSDYEIEEITQAIAGLKNISVELMDQILEEYEQHLIAG	-0.536
HMSELTKEIGKRIHDFRKSRGLNQEELARLIYKSKATLSKYEKGEIAIDLDTLKQLALALHVRMEQLLPPT	≥ 0.43
HMSENDTILAKFVSVMGNKNLELVIFPDIAYLKGQVSNPEDKTKAETVAQSLLGGKPLVSLIEFE	-0.917
HMSENIQLQKEQLYQLIAQLPEQRQKIFRLHKIDNYSYQEISDFTGLSRKTIANHIYLAHQFILKKVKK	-0.28
HMSENKIMEIVQDLAREKSVILISHRLANVTAADKILYMEQGKIAESGTHEQLMAQNKAYAALFNKQQEL	-0.0418
HMSENLESEFFGIVVITQTLLQKELRDKPMTVELIRKTVEDVMSKHYSDSSVDKAKVEEELIRRFSTW	-1.75
HMSENMSQDLAQWYRLQQALHPNLDAPELWATDLTSQQRTVRDQLIQQWAQEKRDSLWSEISGD	-0.618
HMSEPFDMAVPLTSGGRRLDQVLAELLPQHSRNRLQGWIRDGLLTLDGVTVTEPKRKLAGGEQLALLLP	-0.238
HMSEPTLESLRAEGAHHYDPARFHYLEVLARRMPGQHAAVQQVLASRLREAVAAYAGRRSLI	-0.252
HMSEQSEALRTGLDQLPINQRTALTLFHLHELNQSEVAKIMNISVGAVESLLFRGRQKMKQLLTSD	-0.157
